# Assay results from the RNAGym collection of RNA variant scans (doi:10.7554/elife.80360).
# B1: HDV Ribozyme (parent)
# chain: GGCCGGCAUGGUCCCAGCCUCCUCGCUGGCGCCGGCUGGGCAACAUUCCGAGGGGACCGUCCCCUCGGUAAUGGCGAAUGGGACCCA
# Variants of: B1
# Experiment: self-cleavage, relative activity (ratio to wild type); higher = more cleavage; co-transcriptional
row,Variant,self-cleavage
1,GGCCGGCAUGGUCCCAGCCUUCUCGCUGGCGCCGGCUGGGCAACAUUCCGAGGGGACCGUCCCCUCGAUAAUGGCGAAUGGGACCCA [C21U G68A],0.252
2,GGCCGGCAUGGUCCCAGCCUUCUCGCUGGCGCCGGCUGGGCAACAUUCCGAGGGGACCGUCCCCUCGCUAAUGGCGAAUGGGACCCA [C21U G68C],0.0875
3,GGCCGGCAUGGUCCCAGCCUUCUCGCUGGCGCCGGCUGGGCAACAUUCCGAGGGGACCGUCCCCUCGUUAAUGGCGAAUGGGACCCA [C21U G68U],0.271
4,GGCCGGCAUGGUCCCAGCCUUCUCGCUGGCGCCGGCUGGGCAACAUUCCGAGGGGACCGUCCCCUCGGUAAUAGCGAAUGGGACCCA [C21U G73A],0.0955
5,GGCCGGCAUGGUCCCAGCCUUCUCGCUGGCGCCGGCUGGGCAACAUUCCGAGGGGACCGUCCCCUCGGUAAUGGCAAAUGGGACCCA [C21U G76A],0.271
6,GGCCGGCAUGGUCCCAGCCUUCUCGCUGGCGCCGGCUGGGCAACAUUCCGAGGGGACCGUCCCCUCGGUAAUGGCGAAUUGGACCCA [C21U G80U],0.0919
7,GGCCGGCAUGGUCCCAGCCUUCUCGCUGGCGCCGGCUGGGCAACAUUCCGAGGGGACCGUCCCCUCGGUAAUGGCGAAUGAGACCCA [C21U G81A],0.0978
8,GGCCGGCAUGGUCCCAGCCUUCUCGCUGGCGCCGGCUGGGCAACAUUCCGAGGGGACCGUCCCCUCGGUAAUGGCGAAUGCGACCCA [C21U G81C],0.106
9,GGCCGGCAUGGUCCCAGCCUUCUCGCUGGCGCCGGCUGGGCAACAUUCCGAGGGGACCGUCCCCUCGGUAAUGGCGAAUGUGACCCA [C21U G81U],0.0875
10,GGCCGGCAUGGUCCCAGCCUUCACGCUGGCGCCGGCUGGGCAACAUUCCGAGGGGACCGUCCCCUCGGUAAUGGCGAAUGGGACCCA [C21U U23A],0.173
11,GGCCGGCAUGGUCCCAGCCUUCUCGCUGGCGCCGGCAGGGCAACAUUCCGAGGGGACCGUCCCCUCGGUAAUGGCGAAUGGGACCCA [C21U U37A],0.157
12,GGCCGGCAUGGUCCCAGCCUUCUCGCUGGCGCCGGCUGGGCAACAUACCGAGGGGACCGUCCCCUCGGUAAUGGCGAAUGGGACCCA [C21U U47A],0.363
13,GGCCGGCAUGGUCCCAGCCUUCUCGCUGGCGCCGGCUGGGCAACAUGCCGAGGGGACCGUCCCCUCGGUAAUGGCGAAUGGGACCCA [C21U U47G],0.185
14,GGCCGGCAUGGUCCCAGCCUUCUCGCUGGCGCCGGCUGGGCAACAUUCCGAGGGGACCGUCCCCCCGGUAAUGGCGAAUGGGACCCA [C21U U65C],0.198
15,GGCCGGCAUGGUCCCAGCCUUCUCGCUGGCGCCGGCUGGGCAACAUUCCGAGGGGACCGUCCCCGCGGUAAUGGCGAAUGGGACCCA [C21U U65G],0.0852
16,GGCCGGCAUGGUCCCAGCCUUCUCGCUGGCGCCGGCUGGGCAACAUUCCGAGGGGACCGUCCCCUCGGUAACGGCGAAUGGGACCCA [C21U U72C],0.284
17,GGCCGGCAUGGUCCCAGCCUCAUCGCUGGCGCCGGCUGGGCUACAUUCCGAGGGGACCGUCCCCUCGGUAAUGGCGAAUGGGACCCA [C22A A42U],0.111
18,GGCCGGCAUGGUCCCAGCCUCAUCGCUGGCGCCGGCUGGGCAGCAUUCCGAGGGGACCGUCCCCUCGGUAAUGGCGAAUGGGACCCA [C22A A43G],0.151
19,GGCCGGCAUGGUCCCAGCCUCAUCGCUGGCGCCGGCUGGGCAACAUUCCGGGGGGACCGUCCCCUCGGUAAUGGCGAAUGGGACCCA [C22A A51G],0.457
20,GGCCGGCAUGGUCCCAGCCUCAUCGCUGGCGCCGGCUGGGCAACAUUCCGAGGGGCCCGUCCCCUCGGUAAUGGCGAAUGGGACCCA [C22A A56C],0.312
21,GGCCGGCAUGGUCCCAGCCUCAUCGCUGGCGCCGGCUGGGCAACAUUCCGAGGGGGCCGUCCCCUCGGUAAUGGCGAAUGGGACCCA [C22A A56G],0.415
22,GGCCGGCAUGGUCCCAGCCUCAUCGCUGGCGCCGGCUGGGCAACAUUCCGAGGGGACCGUCCCCUCGGUUAUGGCGAAUGGGACCCA [C22A A70U],0.222

row,Variant,self-cleavage
1,GGCCGGCAUGGUCCCAGCCUCAUCGCUGGCGCCGGCUGGGCAACAUUCCGAGGGGACCGUCCCCUCGGUACUGGCGAAUGGGACCCA [C22A A71C],0.0405
2,GGCCGGCAUGGUCCCAGCCUCAUCGCUGGCGCCGGCUGGGCAACAUUCCGAGGGGACCGUCCCCUCGGUAGUGGCGAAUGGGACCCA [C22A A71G],0.393
3,GGCCGGCAUGGUCCCAGCCUCAUCGCUGGCGCCGGCUGGGCAACAUUCCGAGGGGACCGUCCCCUCGGUAUUGGCGAAUGGGACCCA [C22A A71U],0.326
4,GGCCGGCAUGGUCCCAGCCUCAUCGCUGGCGCCGGCUGGGCAACAUUCCGAGGGGACCGUCCCCUCGGUAAUGGCGGAUGGGACCCA [C22A A77G],0.38
5,GGCCGGCAUGGUCCCAGCCUCAUCGCUGGCGCCGGCUGGGCAACAUUCCGAGGGGACCGUCCCCUCGGUAAUGGCGAGUGGGACCCA [C22A A78G],0.0369
6,GGCCGGCAUGGUCCCAGCCUCAUCGCUGGCGCCGGCUGGGCAACAUUCCGAGGGGACCGUCCCCUCGGUAAUGGCGAUUGGGACCCA [C22A A78U],0
7,GGCCGGCAUGGUCCCAGCCUCAUCGCUGGCGCCGGCUGGGCAACAUUCCGAGGGGACCGUCCCCUCGGUAAUGGCGAAUGGGACCCG [C22A A87G],0.33
8,GGCCGGCAUGGUCCCAGCCUCAUCGUUGGCGCCGGCUGGGCAACAUUCCGAGGGGACCGUCCCCUCGGUAAUGGCGAAUGGGACCCA [C22A C26U],0.578
9,GGCCGGCAUGGUCCCAGCCUCAUCGCUGGCGCAGGCUGGGCAACAUUCCGAGGGGACCGUCCCCUCGGUAAUGGCGAAUGGGACCCA [C22A C33A],0.0314
10,GGCCGGCAUGGUCCCAGCCUCAUCGCUGGCGCUGGCUGGGCAACAUUCCGAGGGGACCGUCCCCUCGGUAAUGGCGAAUGGGACCCA [C22A C33U],0.191
11,GGCCGGCAUGGUCCCAGCCUCAUCGCUGGCGCCGGAUGGGCAACAUUCCGAGGGGACCGUCCCCUCGGUAAUGGCGAAUGGGACCCA [C22A C36A],0.0536
12,GGCCGGCAUGGUCCCAGCCUCAUCGCUGGCGCCGGGUGGGCAACAUUCCGAGGGGACCGUCCCCUCGGUAAUGGCGAAUGGGACCCA [C22A C36G],0.0354
13,GGCCGGCAUGGUCCCAGCCUCAUCGCUGGCGCCGGUUGGGCAACAUUCCGAGGGGACCGUCCCCUCGGUAAUGGCGAAUGGGACCCA [C22A C36U],0.149
14,GGCCGGCAUGGUCCCAGCCUCAUCGCUGGCGCCGGCUGGGGAACAUUCCGAGGGGACCGUCCCCUCGGUAAUGGCGAAUGGGACCCA [C22A C41G],0.175
15,GGCCGGCAUGGUCCCAGCCUCAUCGCUGGCGCCGGCUGGGCAACAUUCAGAGGGGACCGUCCCCUCGGUAAUGGCGAAUGGGACCCA [C22A C49A],0.128
16,GGCCGGCAUGGUCCCAGCCUCAUCGCUGGCGCCGGCUGGGCAACAUUCCGAGGGGACCGUUCCCUCGGUAAUGGCGAAUGGGACCCA [C22A C61U],0.237
17,GGCCGGCAUGGUCCCAGCCUCAUCGCUGGCGCCGGCUGGGCAACAUUCCGAGGGGACCGUCGCCUCGGUAAUGGCGAAUGGGACCCA [C22A C62G],0.212
18,GGCCGGCAUGGUCCCAGCCUCAUCGCUGGCGCCGGCUGGGCAACAUUCCGAGGGGACCGUCCACUCGGUAAUGGCGAAUGGGACCCA [C22A C63A],0.166
19,GGCCGGCAUGGUCCCAGCCUCAUCGCUGGCGCCGGCUGGGCAACAUUCCGAGGGGACCGUCCGCUCGGUAAUGGCGAAUGGGACCCA [C22A C63G],0.369
20,GGCCGGCAUGGUCCCAGCCUCAUCGCUGGCGCCGGCUGGGCAACAUUCCGAGGGGACCGUCCUCUCGGUAAUGGCGAAUGGGACCCA [C22A C63U],0.157
21,GGCCGGCAUGGUCCCAGCCUCAUCGCUGGCGCCGGCUGGGCAACAUUCCGAGGGGACCGUCCCCUCGGUAAUGGUGAAUGGGACCCA [C22A C75U],0.128
22,GGCCGGCAUGGUCCCAGCCUCAUCGCUGGCGCCGGCUGGGCAACAUUCCGAGGGGACCGUCCCCUCGGUAAUGGCGAAUGGGACUCA [C22A C85U],0.345

row,Variant,self-cleavage
1,GGCCGGCAUGGUCCCAGCCUCAUCCCUGGCGCCGGCUGGGCAACAUUCCGAGGGGACCGUCCCCUCGGUAAUGGCGAAUGGGACCCA [C22A G25C],0
2,GGCCGGCAUGGUCCCAGCCUCAUCGCUGGCGCCGGCUGAGCAACAUUCCGAGGGGACCGUCCCCUCGGUAAUGGCGAAUGGGACCCA [C22A G39A],0.0528
3,GGCCGGCAUGGUCCCAGCCUCAUCGCUGGCGCCGGCUGCGCAACAUUCCGAGGGGACCGUCCCCUCGGUAAUGGCGAAUGGGACCCA [C22A G39C],0.0437
4,GGCCGGCAUGGUCCCAGCCUCAUCGCUGGCGCCGGCUGUGCAACAUUCCGAGGGGACCGUCCCCUCGGUAAUGGCGAAUGGGACCCA [C22A G39U],0.166
5,GGCCGGCAUGGUCCCAGCCUCAUCGCUGGCGCCGGCUGGGCAACAUUCCGACGGGACCGUCCCCUCGGUAAUGGCGAAUGGGACCCA [C22A G52C],0.305
6,GGCCGGCAUGGUCCCAGCCUCAUCGCUGGCGCCGGCUGGGCAACAUUCCGAGUGGACCGUCCCCUCGGUAAUGGCGAAUGGGACCCA [C22A G53U],0.376
7,GGCCGGCAUGGUCCCAGCCUCAUCGCUGGCGCCGGCUGGGCAACAUUCCGAGGAGACCGUCCCCUCGGUAAUGGCGAAUGGGACCCA [C22A G54A],0.197
8,GGCCGGCAUGGUCCCAGCCUCAUCGCUGGCGCCGGCUGGGCAACAUUCCGAGGGCACCGUCCCCUCGGUAAUGGCGAAUGGGACCCA [C22A G55C],0.262
9,GGCCGGCAUGGUCCCAGCCUCAUCGCUGGCGCCGGCUGGGCAACAUUCCGAGGGGACCGUCCCCUCUGUAAUGGCGAAUGGGACCCA [C22A G67U],0.259
10,GGCCGGCAUGGUCCCAGCCUCAUCGCUGGCGCCGGCUGGGCAACAUUCCGAGGGGACCGUCCCCUCGGUAAUAGCGAAUGGGACCCA [C22A G73A],0.0723
11,GGCCGGCAUGGUCCCAGCCUCAUCGCUGGCGCCGGCUGGGCAACAUUCCGAGGGGACCGUCCCCUCGGUAAUCGCGAAUGGGACCCA [C22A G73C],0.0482
12,GGCCGGCAUGGUCCCAGCCUCAUCGCUGGCGCCGGCUGGGCAACAUUCCGAGGGGACCGUCCCCUCGGUAAUGACGAAUGGGACCCA [C22A G74A],0.0744
13,GGCCGGCAUGGUCCCAGCCUCAUCGCUGGCGCCGGCUGGGCAACAUUCCGAGGGGACCGUCCCCUCGGUAAUGGCGAAUAGGACCCA [C22A G80A],0.0479
14,GGCCGGCAUGGUCCCAGCCUCAUCGCUGGCGCCGGCUGGGCAACAUUCCGAGGGGACCGUCCCCUCGGUAAUGGCGAAUGAGACCCA [C22A G81A],0.205
15,GGCCGGCAUGGUCCCAGCCUCAACGCUGGCGCCGGCUGGGCAACAUUCCGAGGGGACCGUCCCCUCGGUAAUGGCGAAUGGGACCCA [C22A U23A],0.224
16,GGCCGGCAUGGUCCCAGCCUCAUCGCAGGCGCCGGCUGGGCAACAUUCCGAGGGGACCGUCCCCUCGGUAAUGGCGAAUGGGACCCA [C22A U27A],0.0573
17,GGCCGGCAUGGUCCCAGCCUCAUCGCCGGCGCCGGCUGGGCAACAUUCCGAGGGGACCGUCCCCUCGGUAAUGGCGAAUGGGACCCA [C22A U27C],0.317
18,GGCCGGCAUGGUCCCAGCCUCAUCGCUGGCGCCGGCCGGGCAACAUUCCGAGGGGACCGUCCCCUCGGUAAUGGCGAAUGGGACCCA [C22A U37C],0.0723
19,GGCCGGCAUGGUCCCAGCCUCAUCGCUGGCGCCGGCGGGGCAACAUUCCGAGGGGACCGUCCCCUCGGUAAUGGCGAAUGGGACCCA [C22A U37G],0.0462
20,GGCCGGCAUGGUCCCAGCCUCAUCGCUGGCGCCGGCUGGGCAACAUUCCGAGGGGACCGACCCCUCGGUAAUGGCGAAUGGGACCCA [C22A U60A],0.326
